Source: US20250289893A1 (OXFORD UNIVERSITY INNOVATION, published 2025)

T1: Cynomolgus monkey CD1a protein (Cynomolgus monkey)
T1 chain: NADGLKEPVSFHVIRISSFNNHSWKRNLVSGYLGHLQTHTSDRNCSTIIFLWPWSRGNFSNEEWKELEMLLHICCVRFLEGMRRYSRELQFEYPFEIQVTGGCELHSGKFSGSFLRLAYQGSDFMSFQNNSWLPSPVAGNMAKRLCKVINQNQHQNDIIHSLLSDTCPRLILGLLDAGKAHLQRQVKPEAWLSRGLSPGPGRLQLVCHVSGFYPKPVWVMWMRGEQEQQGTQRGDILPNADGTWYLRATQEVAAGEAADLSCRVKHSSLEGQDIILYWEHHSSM


How the values were obtained:
[1] = target: T2, human CD1a expressed on cells (human, UniProt P06126 17-327; P61769 21-119); experiment: flow cytometry, MOLT4 cells, 0.1 µg/ml antibody
T2 construct: also called HEK - CD1a; C1R - CD1a
Experimental: (§1) CD1a-specific antibodies were identified by flow cytometry. Binding to proteins expressed on HEK, C1R and MOLT4 cell lines was assessed. […] The C1R-CD1a, C1R-empty vector and MOLT4 cell lines were washed in 1×PBS on the day required. All cell lines were counted and resuspended in 1×PBS and then stained for 30 minutes at 37° C. using the DiI or DiO cellular stains (Invitrogen). Cells were washed with flow cytometry buffer (1% bovine serum albumin, 2 mM EDTA and 0.1% sodium azide in PBS) before mixing 2 DiI-stained and DiO-stained populations together. The cells (20 μl/well) were then added to dilutions of antibody sample (B cell culture supernatant, TAP supernatant, clone supernatant, purified antibody solution) (20 μl/well) and incubated for 1 hour at 4° C. in a flow cytometry assay plate, before being washed with flow cytometry buffer. 10 μl/well of Alexafluor647-conjugated goat anti-species IgG Fc-specific F(ab′)2 fragment (Jackson ImmunoResearch), diluted 1:2500 in flow cytometry buffer, was added and incubated at 4° C. for 30 minutes, followed by washing with wash buffer. The fluorescence intensity was then measured on an iQue screener PLUS.
(§2) Binding was quantified as fold change in fluorescence intensity geomean over background assessed by flow cytometry.

[2] = target: T2, human CD1a expressed on cells; experiment: flow cytometry, C1R cells, 0.316 µg/ml antibody
Experimental: (§3) Binding to proteins expressed on HEK, C1R and MOLT4 cell lines was assessed. […] The C1R-CD1a, C1R-empty vector and MOLT4 cell lines were washed in 1×PBS on the day required. All cell lines were counted and resuspended in 1×PBS and then stained for 30 minutes at 37° C. using the DiI or DiO cellular stains (Invitrogen). Cells were washed with flow cytometry buffer (1% bovine serum albumin, 2 mM EDTA and 0.1% sodium azide in PBS) before mixing 2 DiI-stained and DiO-stained populations together. The cells (20 μl/well) were then added to dilutions of antibody sample (B cell culture supernatant, TAP supernatant, clone supernatant, purified antibody solution) (20 μl/well) and incubated for 1 hour at 4° C. in a flow cytometry assay plate, before being washed with flow cytometry buffer. 10 μl/well of Alexafluor647-conjugated goat anti-species IgG Fc-specific F(ab′)2 fragment (Jackson ImmunoResearch), diluted 1:2500 in flow cytometry buffer, was added and incubated at 4° C. for 30 minutes, followed by washing with wash buffer. The fluorescence intensity was then measured on an iQue screener PLUS.
as §2

[3] = target: T3, human CD1a protein (pool B) (human, UniProt P06126 18-295, limits assumed); experiment: ELISA, 1 µg/ml antibody
T3 construct: Recombinant protein of the ELISA (coated) and the Biacore T200 titration; whole entry named; also called human CD1a pool B; full length CD1a
T3 sequence (P06126 18-295 limits assumed): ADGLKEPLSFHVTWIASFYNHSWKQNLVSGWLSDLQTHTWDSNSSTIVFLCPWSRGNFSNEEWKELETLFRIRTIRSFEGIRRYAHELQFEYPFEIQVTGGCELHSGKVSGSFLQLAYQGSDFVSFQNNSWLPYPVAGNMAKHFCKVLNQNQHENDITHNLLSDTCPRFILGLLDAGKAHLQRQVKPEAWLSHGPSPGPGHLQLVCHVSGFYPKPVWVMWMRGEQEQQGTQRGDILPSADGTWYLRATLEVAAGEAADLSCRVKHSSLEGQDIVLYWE
Experimental: (§4) CD1a-specific antibodies were identified by ELISA. […] 20 μl/well of peroxidase-conjugated goat anti-species IgG Fc-specific F(ab′)2 fragment (Jackson ImmunoResearch), diluted 1:5000 in block buffer was added and incubated at room temperature for 1 hour, followed by washing with wash buffer.
(§5) The antibodies were titrated through a dilution series and compared to a control rabbit IgG antibody.

[4] = target: T4, chimeric CD1a pool B protein [human CD1a lipid binding domain, mouse CD1d Ig domain] (human; mouse, UniProt P06126 18-201; P11609 205-297, limits assumed); experiment: ELISA, 1 µg/ml antibody
T4 sequence (P06126 other isoform, or with tags, fused parts or gaps mutant limits assumed): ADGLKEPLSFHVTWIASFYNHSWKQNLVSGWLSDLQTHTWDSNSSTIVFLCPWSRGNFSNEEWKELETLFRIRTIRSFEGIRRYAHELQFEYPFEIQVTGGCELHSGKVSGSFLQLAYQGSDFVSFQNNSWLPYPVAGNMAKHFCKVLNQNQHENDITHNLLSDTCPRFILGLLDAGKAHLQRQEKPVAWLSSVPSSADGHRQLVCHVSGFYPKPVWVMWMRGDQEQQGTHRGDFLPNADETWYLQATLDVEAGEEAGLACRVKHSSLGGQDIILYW
Experimental: as §4
(§6) The antibodies were titrated through a dilution series and compared to a control rabbit IgG antibody. […] Data shown for purified antibodies.

[5] = target: T4, chimeric CD1a pool B protein [human …; experiment: ELISA, 0.1 µg/ml antibody
Experimental: as §4, §6

[6] = target: T2, human CD1a expressed on cells; experiment: flow cytometry, MOLT4 cells, 0.316 µg/ml antibody
Experimental: as §1, §2

[7] = target: T2, human CD1a expressed on cells; experiment: flow cytometry, C1R cells, 0.1 µg/ml antibody
Experimental: as §3, §2

[8] = target: T3, human CD1a protein (pool B); experiment: ELISA, 10 µg/ml antibody
Experimental: as §4, §5

[9] = target: T3, human CD1a protein (pool B); experiment: ELISA, 31.6 µg/ml antibody
Experimental: as §4, §5

[10] = target: T5, human CD1b expressed on HEK-293 cells (human, UniProt P29016 18-333; P61769 21-119); experiment: flow cytometry, HEK-293 cells, 10 µg/ml antibody
T5 construct: also called HEK - CD1b
Experimental: as §3
(§7) HEK-293 cells were transiently transfected with human CD1a, CD1b, CD1c or CD1d and co-transfected with human β2M.

[11] = target: T6, human CD1c expressed on HEK-293 cells (human, UniProt P29017 18-333; P61769 21-119); experiment: flow cytometry, HEK-293 cells, 10 µg/ml antibody
T6 construct: also called HEK - CD1c
Experimental: as §3, §7

[12] = target: T2, human CD1a expressed on cells; experiment: flow cytometry, HEK-293 cells, 10 µg/ml antibody
Experimental: as §3, §7

[13] = target: T7, human CD1d expressed on HEK-293 cells (human, UniProt P15813 20-335; P61769 21-119); experiment: flow cytometry, HEK-293 cells, 10 µg/ml antibody
T7 construct: also called HEK - CD1d
Experimental: as §3, §7

[14] = target: T1, Cynomolgus monkey CD1a protein; experiment: ELISA, 0.1 µg/ml antibody
[15] = target: T2, human CD1a expressed on cells; experiment: flow cytometry, MOLT4 cells, 10 µg/ml antibody
Experimental: as §1, §2

[16] = target: Chinese variant CD1a protein (human) (UniProt P06126); experiment: ELISA, 1 µg/ml antibody
Chinese variant CD1a protein (human), sequence (P06126 18-295, change not shown): as the sequence (P06126 18-295 limits assumed) above

[17] = target: T1, Cynomolgus monkey CD1a protein; experiment: ELISA, 1 µg/ml antibody
[18] = target: T2, human CD1a expressed on cells; experiment: flow cytometry, C1R cells, 10 µg/ml antibody
Experimental: as §3, §2

[19] = target: T2, human CD1a expressed on cells; experiment: flow cytometry, C1R cells, 100 µg/ml antibody
Experimental: as §3, §2

[20] = target: T2, human CD1a expressed on cells; experiment: flow cytometry, C1R cells, 1 µg/ml antibody
Experimental: as §3, §2

[21] = target: T5, human CD1b expressed on HEK-293 cells; experiment: flow cytometry, HEK-293 cells, 3.16 µg/ml antibody
Experimental: as §3, §7

[22] = target: T6, human CD1c expressed on HEK-293 cells; experiment: flow cytometry, HEK-293 cells, 3.16 µg/ml antibody
Experimental: as §3, §7

[23] = target: T2, human CD1a expressed on cells; experiment: flow cytometry, HEK-293 cells, 3.16 µg/ml antibody
Experimental: as §3, §7

[24] = target: T7, human CD1d expressed on HEK-293 cells; experiment: flow cytometry, HEK-293 cells, 3.16 µg/ml antibody
Experimental: as §3, §7

[25] = target: T3, human CD1a protein (pool B); experiment: ELISA, 100 µg/ml antibody
Experimental: as §4, §5

[26] = target: T2, human CD1a expressed on cells; experiment: flow cytometry, MOLT4 cells, 31.6 µg/ml antibody
Experimental: as §1, §2

Binder	Fluorescence Intensity Geomean (normalized to background) [1] [fold over background]	Fluorescence Intensity Geomean (normalized to background) [2] [fold over background]	Optical Density (OD) [3] [OD]	Optical Density (OD) [4] [OD]	Optical Density (OD) [5] [OD]	Fluorescence Intensity Geomean (normalized to background) [6] [fold over background]	Fluorescence Intensity Geomean (normalized to background) [7] [fold over background]	Optical Density (OD) [8] [OD]	Optical Density (OD) [9] [OD]	Fluorescence Intensity Geomean (normalized to background) [10] [fold over background]	Fluorescence Intensity Geomean (normalized to background) [11] [fold over background]	Fluorescence Intensity Geomean (normalized to background) [12] [fold over background]	Fluorescence Intensity Geomean (normalized to background) [13] [fold over background]	Optical Density (OD) [14] [OD]	Fluorescence Intensity Geomean (normalized to background) [15] [fold over background]	Optical Density (OD) [16] [OD]	Optical Density (OD) [17] [OD]	Fluorescence Intensity Geomean (normalized to background) [18] [fold over background]	Fluorescence Intensity Geomean (normalized to background) [19] [fold over background]	Fluorescence Intensity Geomean (normalized to background) [20] [fold over background]	further results
116 (VR12117) (antibody, V domains shown, also called OX116) VH: QSVEESGGRLVTPGTPLTLTCTVSGFSLSNYAMSWVRQAPGKGLEWIGIIYTTGFTYYASWVKGRFTISKTSTTVDLKITSPTTEDTATYFCARGLATYVSPPTRLDLWGQGTLVTVSS VL: AQVLTQTPSPVSAAVGGTVTINCQASQSIYNSKNLAWYQQKPGQPPKLLIYSASTLASGVPSRFKGSGSGTQFTLTISDLECDDAATYYCQGEFSCSSVDCATFGGGTEVVVK	22.6	27.5	1.15	1.42	1.25	29.6	27	1.18	1.16	1	1.1	12.6	1.1	0.07	11.7	1.51	0.14	16.9	11.9	28.7	Fluorescence Intensity Geomean (normalized to background) [21]: 1 fold over background; Fluorescence Intensity Geomean (normalized to background) [22]: 1.1 fold over background; Fluorescence Intensity Geomean (normalized to background) [23]: 21.9 fold over background; Fluorescence Intensity Geomean (normalized to background) [24]: 1.1 fold over background; Optical Density (OD) [25]: 1.15 OD; Fluorescence Intensity Geomean (normalized to background) [26]: 5.6 fold over background
111 (VR12113) (antibody, V domains shown, also called OX111) VH: QSVEESGGRLVTPGTPLTLTCTASGFSLSTYAMSWVRQAPGKGLEWIGIISSSGSTYYASWAKGRFTISKTSTTVDLKITSPTTEDTATYFCARETWYWLDLWGQGTLVTVSS VL: AVEMTQTPASVSAAVGGTVTINCQASEDIYSNLAWYQQKPGQPPKLLIYGASTLASGVPSRFKGSGSGTEYTLTISGVQCDDAATYYCQCAYDSSSYGTPFGGGTEVVVK	20.6	28.8	1.14	1.36	1.25	27.3	25.4	1.12	1.07	1.1	1	11.1	1.1	0.66	9.3	1.44	0.69	11.7	7.3	28	Fluorescence Intensity Geomean (normalized to background) [21]: 1.1 fold over background; Fluorescence Intensity Geomean (normalized to background) [22]: 1.1 fold over background; Fluorescence Intensity Geomean (normalized to background) [23]: 24.9 fold over background; Fluorescence Intensity Geomean (normalized to background) [24]: 1.1 fold over background; Optical Density (OD) [25]: 1.12 OD; Fluorescence Intensity Geomean (normalized to background) [26]: 5.4 fold over background
